Test [1] concerns the target T1, human P-cadherin W2A mutant ectodomain (EC1-5) (Homo sapiens, UniProt P22223, point mutant, biotin on the Avi-tag (BirA enzyme)).
T1 construct: signal peptide in the construct; Made with the Q5 site-directed mutagenesis kit from the WT ectodomain construct; also called Pcad W2A; W2A Pcad; source: Expi293 suspension cells, transfected, purified from conditioned media (Ni-NTA), biotinylated with BirA; not shown: Avi-tag, C-terminal, kept
The experiment in a line: far-Western, overlay or dot blot; Western blot: purified Pcad ectodomains boiled in SDS-PAGE sample buffer with 2-mercaptoethanol, run on gels, transferred to PVDF; probed with CQY684. Particulars: both partners purified.

Test [2] addresses T2, wild-type human P-cadherin ectodomain (EC1-5) (human, UniProt P22223, biotin on the Avi-tag (BirA enzyme)).
T2 construct: signal peptide in the construct; human P-cadherin (placental cadherin), complete extracellular region EC1-5, ectodomain (1-654); Cloned into pcDNA3.1(+); residue numbers W2, K14 count on the mature protein; also called Pcad WT; WT Pcad; source: Expi293 suspension cells, transfected, purified from conditioned media (Ni-NTA), biotinylated with BirA; not shown: Avi-tag, C-terminal, kept
The experiment in a line: single-molecule AFM force spectroscopy; as the -CQY experiment but with 40 nM CQY684 Fab in the buffer (+CQY); Pcad EC1-5 on cantilever and substrate; 1 µm/s; Tris buffer pH 7.5 with 2.5 mM CaCl2. Particulars: both partners purified.

T1 sequence (P22223 whole entry, looked up, stated change not applied, the tested form may be a part): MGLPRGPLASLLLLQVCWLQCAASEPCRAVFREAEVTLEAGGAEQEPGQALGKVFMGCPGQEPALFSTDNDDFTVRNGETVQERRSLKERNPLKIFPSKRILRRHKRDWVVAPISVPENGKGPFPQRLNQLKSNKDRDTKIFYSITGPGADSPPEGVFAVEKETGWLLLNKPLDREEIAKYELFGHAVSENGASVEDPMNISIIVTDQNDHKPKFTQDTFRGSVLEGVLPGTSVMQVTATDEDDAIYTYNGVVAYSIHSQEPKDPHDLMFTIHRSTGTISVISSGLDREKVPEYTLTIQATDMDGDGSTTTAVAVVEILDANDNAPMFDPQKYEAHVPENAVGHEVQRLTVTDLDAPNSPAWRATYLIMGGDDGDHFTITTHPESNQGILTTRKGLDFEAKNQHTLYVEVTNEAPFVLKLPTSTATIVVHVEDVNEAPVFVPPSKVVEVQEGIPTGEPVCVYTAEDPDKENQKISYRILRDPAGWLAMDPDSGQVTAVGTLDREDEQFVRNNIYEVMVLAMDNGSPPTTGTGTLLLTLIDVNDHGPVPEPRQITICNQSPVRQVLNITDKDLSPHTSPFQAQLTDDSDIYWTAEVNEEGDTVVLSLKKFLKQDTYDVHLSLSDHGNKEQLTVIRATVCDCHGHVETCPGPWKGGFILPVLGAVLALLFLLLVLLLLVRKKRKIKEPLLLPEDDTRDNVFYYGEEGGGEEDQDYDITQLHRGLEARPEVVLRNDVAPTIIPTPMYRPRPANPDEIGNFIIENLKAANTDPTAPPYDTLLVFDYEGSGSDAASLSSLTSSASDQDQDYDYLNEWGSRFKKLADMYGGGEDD
T2 sequence (P22223 108-654): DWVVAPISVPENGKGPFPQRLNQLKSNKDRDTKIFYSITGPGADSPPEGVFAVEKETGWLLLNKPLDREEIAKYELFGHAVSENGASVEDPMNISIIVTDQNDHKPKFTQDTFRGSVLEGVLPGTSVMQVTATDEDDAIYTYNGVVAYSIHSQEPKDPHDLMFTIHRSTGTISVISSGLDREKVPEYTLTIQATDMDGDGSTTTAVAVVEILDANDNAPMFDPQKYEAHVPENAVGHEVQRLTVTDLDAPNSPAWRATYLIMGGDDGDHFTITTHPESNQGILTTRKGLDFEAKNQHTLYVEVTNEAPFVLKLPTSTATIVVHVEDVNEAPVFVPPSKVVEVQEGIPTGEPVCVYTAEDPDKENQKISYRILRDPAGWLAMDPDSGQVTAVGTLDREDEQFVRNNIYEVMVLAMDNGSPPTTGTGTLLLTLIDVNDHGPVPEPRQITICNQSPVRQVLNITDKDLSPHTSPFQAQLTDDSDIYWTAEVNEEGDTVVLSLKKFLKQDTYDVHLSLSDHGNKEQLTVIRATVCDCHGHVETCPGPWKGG

B1: CQY684 Fab (Fab, V domains shown)
VH: QVQLQQSGPGLVKPSQTLSLTCAISGDSVSSQSAAWNWIRQSPSRGLEWLGRIYYRSKWYNDYALSVKSRITINPDTSKNQFSLQLNSVTPEDTAVYYCARGEGYGREGFAIWGQGTLVTVSS
VL: DIQMTQSPSSLSASVGDRVTITCRASQTISNTLAWYQQKPGKAPKLLIYAASNLQSGVPSRFSGSGSGTDFTLTISSLQPEDFATYYCQQYLSWFTFGQGTKVEIK
notes: variable region cloned into a human IgG Fab backbone; the constant parts of the GenScript human IgG Fab backbone may differ from those in PDB 6ZTR; also called CQY Fab; antibody part of the antibody-drug conjugate PCA062; source: recombinantly generated by GenScript
Consider B1, for which the binding result in test [1] and in test [2] was “binds” throughout.
